{
  "source": "patent US20260200991A1",
  "molecular_target": "Flag tagged HIV-1 Env with the 7aa Erbin PDZ domain binding sequence fused to its C-terminus (HIV-1)",
  "experiment": "cell-based or functional assay",
  "data": [
    {"substance": "Ebola VP40-Erbin PDZ fusion protein", "values": [
      {"measurement": "normalized VLP ELISA (Env display on VLPs) (fold decrease)", "value": 2}
    ]}
  ]
}
